Laboratory results reported in article PMC7021776, “Heme binding of transmembrane signaling proteins undergoing regulated intramembrane proteolysis” (Communications Biology, 2020).

Target: the molecule itself
Assay: SEC; gel filtration of purified MBP fusion proteins, Superose 6 Increase 10/300 GL, 4 °C, TN buffer (50 mM Tris/HCl pH 7.4, 150 mM NaCl) with 0.1% Triton X-100; growth medium with or without δ-aminolevulinic acid

Protein | stoichiometry N | binding result
MSTESMIRDVELAEEALPKKTGGPQGSRRCLFLSLFSFLIVAGATTL (domain or fragment, human, UniProt P01375 1-47, looked up, The text names it without MBP; source: E. coli NEB Express (pMalC5X), membrane fraction solubilised with Triton X-100, purified (amylose); not shown: MBP, N-terminal, kept) [TNFα-NTF(1–47)] | 2 | –
TNFα-NTF(1–51) (domain or fragment, human, UniProt P01375 1-51, looked up, The text names it without MBP; source: E. coli NEB Express (pMalC5X), membrane fraction solubilised with Triton X-100, purified (amylose); not shown: MBP, N-terminal, kept) MSTESMIRDVELAEEALPKKTGGPQGSRRCLFLSLFSFLIVAGATTLFCLL | – | binds
MBP-TNFα-NTF(1–76) (domain or fragment, human, UniProt P01375 1-76, looked up, also called TNFα-NTF(1–76) wt; MBP-TNFα(1–76); source: E. coli NEB Express (pMalC5X), membrane fraction solubilised with Triton X-100, purified (amylose); not shown: MBP, N-terminal, kept) MSTESMIRDVELAEEALPKKTGGPQGSRRCLFLSLFSFLIVAGATTLFCLLHFGVIGPQREEFPRDLSLISPLAQA | 3 | –
